Test results: IntAct's records for PubMed 19368893

B1: ADP-ribosylation factor-like protein 2-binding protein (Homo sapiens), Q9Y2Y0 (parent)
chain: MDALEGESFALSFSSASDAEFDAVVGYLEDIIMDDEFQLLQRNFMDKYYLEFEDTEENKLIYTPIFNEYISLVEKYIEEQLLQRIPEFNMAAFTTTLQHHKDEVAGDIFDMLLTFTDFLAFKEMFLDYRAEKEGRGLDLSSGLVVTSLCKSSSLPASQNNLRH

Variants of: B1
Details: with arl2_human ARL2, P36404
Sequence of arl2_human ARL2, P36404 (P36404 whole entry): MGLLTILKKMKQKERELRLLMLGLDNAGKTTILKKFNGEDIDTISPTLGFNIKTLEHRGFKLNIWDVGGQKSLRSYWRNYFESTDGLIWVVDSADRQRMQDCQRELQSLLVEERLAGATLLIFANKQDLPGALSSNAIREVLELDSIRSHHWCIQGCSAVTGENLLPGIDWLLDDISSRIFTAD

effect of a mutation on the interaction | Variant
decreasing interaction | L112A
decreasing interaction | F115A
decreasing interaction | L60A
decreasing interaction | E74A
decreasing interaction | E56A
decreasing interaction | E57A
decreasing interaction | F109A
decreasing interaction | D110A
